In this test the target is T1, Ac-…-NH2 peptide (P. falciparum).
T1 sequence (peptide, N-terminal acetyl group; C-terminal NH2 group (amide)): NPNVDPNANPNV
Put plainly: ITC; MicroCal Auto-iTC200; triplicate (or duplicate) experiments; details in SI. A general note: In ITC the heat of successive injections is recorded.

One molecule from article PMC5715787, “Structural basis for antibody recognition of the NANP repeats in Plasmodium falciparum circumsporozoite protein” (Proceedings of the National Academy of Sciences of the …, 2017) can be followed below.

The Kd is a measure of binding affinity in units of concentration. As a reminder, the stoichiometry N is a count of units in the complex or per binding partner.

B1: Fab317 (Fab, V domains shown)
VH: QMQLVESGGGVVQPGRSLRLSCTASGFTFSTYAMHWVRQSPGQGLQWVAVISYHSTNKYYEDSVRGRFTISRDNSKNTLYLQMNSLRAEDTAVYYCARDGYSSSFFDFWGQGTLVTVSS
VL: DIQMTQSPSTLSASVGDRVAITCRASQSISRWLAWYQQQPGKAPKLLMSGASVLESGVPSRFSGSGSGTEFTLTISSLQPDDFATYYCQHYNSYFVTFGQGTKVEIK
B1 displayed a Kd of 12.1 µM, a dH of -9.66 kcal/mol and a stoichiometry N of 1.72.
